Laboratory results taken from the supplement of paper PMC7125110.
± gives the standard error. For part of these data: Fewer inactive variants are shown than the library holds.

B1: glmS ribozyme (parent)
chain: AUAAAAGCGCCAGAACUACAGAAAUGUAGUUGACGAGGAGGAGGUUUAUCGAAUUUUCGGCGGAUGCCUCCAAA

Legend:
Conditions in all cases: with glucosamine-6-phosphate
glucosamine-6-phosphate [1] = variants of: B1; test: kcat; higher = faster cleavage; RNA array
In short: (§1)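 Barcoded ribozyme variants, transcribed in situ by E. coli RNA polymerase on sequenced MiSeq chips, were followed via a hybridised Cy3 probe at 37 °C. Glucosamine-6-phosphate ranged from 40 μM to 10 mM in HEPES/KCl/Mg(OAc)2 buffer. kobs came from decay fits to per-tile medians, and kcat and KM from weighted Michaelis–Menten fits.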

glucosamine-6-phosphate [2] = variants of: B1; test: self-cleavage kobs at 40 uM GlcN6P; higher = faster cleavage; RNA array
In short: as §1

glucosamine-6-phosphate [3] = variants of: B1; test: self-cleavage kobs at 160 uM GlcN6P; higher = faster cleavage; RNA array
In short: as §1

glucosamine-6-phosphate [4] = variants of: B1; test: self-cleavage kobs at 640 uM GlcN6P; higher = faster cleavage; RNA array
In short: as §1

glucosamine-6-phosphate [5] = variants of: B1; test: self-cleavage kobs at 2500 uM GlcN6P; higher = faster cleavage; RNA array
In short: as §1

glucosamine-6-phosphate [6] = variants of: B1; test: self-cleavage kobs at 10000 uM GlcN6P; higher = faster cleavage; RNA array
In short: as §1

glucosamine-6-phosphate [7] = variants of: B1; test: KM; higher = weaker cofactor use; RNA array
In short: as §1

A15G U69A
kcat (glucosamine-6-phosphate [1]): 0.000201 ± 4.3e-05 s⁻¹ | self-cleavage kobs at 40 uM GlcN6P (glucosamine-6-phosphate [2]): 6.42e-05 ± 9.6e-06 s⁻¹ | self-cleavage kobs at 160 uM GlcN6P (glucosamine-6-phosphate [3]): 0.000145 ± 1.7e-05 s⁻¹ | self-cleavage kobs at 640 uM GlcN6P (glucosamine-6-phosphate [4]): 0.000137 ± 1.8e-05 s⁻¹ | self-cleavage kobs at 2500 uM GlcN6P (glucosamine-6-phosphate [5]): 0.000264 ± 5.2e-05 s⁻¹ | self-cleavage kobs at 10000 uM GlcN6P (glucosamine-6-phosphate [6]): 0.000312 ± 4.6e-05 s⁻¹

A14G U56A
kcat (glucosamine-6-phosphate [1]): 0.121 ± 0.022 s⁻¹ | KM (glucosamine-6-phosphate [7]): 1930 ± 400 µM | self-cleavage kobs at 40 uM GlcN6P (glucosamine-6-phosphate [2]): 0.00249 ± 0.00036 s⁻¹ | self-cleavage kobs at 160 uM GlcN6P (glucosamine-6-phosphate [3]): 0.00984 ± 0.0021 s⁻¹ | self-cleavage kobs at 640 uM GlcN6P (glucosamine-6-phosphate [4]): 0.0275 ± 0.0058 s⁻¹ | self-cleavage kobs at 2500 uM GlcN6P (glucosamine-6-phosphate [5]): 0.0642 ± 0.024 s⁻¹ | self-cleavage kobs at 10000 uM GlcN6P (glucosamine-6-phosphate [6]): 0.126 ± 0.053 s⁻¹

C61A C71G
kcat (glucosamine-6-phosphate [1]): 1.3e-05 ± 2.8e-06 s⁻¹

U56A C61G
kcat (glucosamine-6-phosphate [1]): < 1e-05 s⁻¹

A6G C16U
kcat (glucosamine-6-phosphate [1]): 0.000459 ± 3.2e-05 s⁻¹ | KM (glucosamine-6-phosphate [7]): 3450 ± 450 µM | self-cleavage kobs at 160 uM GlcN6P (glucosamine-6-phosphate [3]): 2.44e-05 ± 1.1e-05 s⁻¹ | self-cleavage kobs at 640 uM GlcN6P (glucosamine-6-phosphate [4]): 6.74e-05 ± 1e-05 s⁻¹ | self-cleavage kobs at 2500 uM GlcN6P (glucosamine-6-phosphate [5]): 0.000208 ± 2.7e-05 s⁻¹ | self-cleavage kobs at 10000 uM GlcN6P (glucosamine-6-phosphate [6]): 0.000336 ± 3.2e-05 s⁻¹

A12G U69G
kcat (glucosamine-6-phosphate [1]): 7.83e-05 ± 2.6e-06 s⁻¹ | KM (glucosamine-6-phosphate [7]): 285 ± 71 µM | self-cleavage kobs at 640 uM GlcN6P (glucosamine-6-phosphate [4]): 5.05e-05 ± 1.9e-05 s⁻¹ | self-cleavage kobs at 2500 uM GlcN6P (glucosamine-6-phosphate [5]): 7.46e-05 ± 1.5e-05 s⁻¹ | self-cleavage kobs at 10000 uM GlcN6P (glucosamine-6-phosphate [6]): 7.47e-05 ± 1.1e-05 s⁻¹

U57A U69A
kcat (glucosamine-6-phosphate [1]): 3.14e-05 ± 6.3e-06 s⁻¹ | self-cleavage kobs at 2500 uM GlcN6P (glucosamine-6-phosphate [5]): 3.75e-05 ± 1.1e-05 s⁻¹

A12U C67G
kcat (glucosamine-6-phosphate [1]): 0.00362 ± 0.00062 s⁻¹ | KM (glucosamine-6-phosphate [7]): 791 ± 210 µM | self-cleavage kobs at 40 uM GlcN6P (glucosamine-6-phosphate [2]): 0.00019 ± 2.1e-05 s⁻¹ | self-cleavage kobs at 160 uM GlcN6P (glucosamine-6-phosphate [3]): 0.000542 ± 0.00011 s⁻¹ | self-cleavage kobs at 640 uM GlcN6P (glucosamine-6-phosphate [4]): 0.0015 ± 0.00029 s⁻¹ | self-cleavage kobs at 2500 uM GlcN6P (glucosamine-6-phosphate [5]): 0.00226 ± 0.00035 s⁻¹ | self-cleavage kobs at 10000 uM GlcN6P (glucosamine-6-phosphate [6]): 0.00426 ± 0.00054 s⁻¹

A12C G44C
kcat (glucosamine-6-phosphate [1]): 4.97e-05 ± 2.4e-06 s⁻¹ | KM (glucosamine-6-phosphate [7]): 4150 ± 610 µM | self-cleavage kobs at 160 uM GlcN6P (glucosamine-6-phosphate [3]): < 1e-05 s⁻¹ | self-cleavage kobs at 10000 uM GlcN6P (glucosamine-6-phosphate [6]): 3.51e-05 ± 7.6e-06 s⁻¹

U47A U54A
kcat (glucosamine-6-phosphate [1]): 0.0235 ± 0.0067 s⁻¹ | KM (glucosamine-6-phosphate [7]): 1820 ± 700 µM | self-cleavage kobs at 40 uM GlcN6P (glucosamine-6-phosphate [2]): 0.000584 ± 0.00012 s⁻¹ | self-cleavage kobs at 160 uM GlcN6P (glucosamine-6-phosphate [3]): 0.00186 ± 0.00037 s⁻¹ | self-cleavage kobs at 640 uM GlcN6P (glucosamine-6-phosphate [4]): 0.00587 ± 0.001 s⁻¹ | self-cleavage kobs at 2500 uM GlcN6P (glucosamine-6-phosphate [5]): 0.0118 ± 0.0025 s⁻¹ | self-cleavage kobs at 10000 uM GlcN6P (glucosamine-6-phosphate [6]): 0.0314 ± 0.0084 s⁻¹

A6G U54C
kcat (glucosamine-6-phosphate [1]): 0.000547 ± 9.2e-05 s⁻¹ | KM (glucosamine-6-phosphate [7]): 2590 ± 710 µM | self-cleavage kobs at 160 uM GlcN6P (glucosamine-6-phosphate [3]): 4.65e-05 ± 1.2e-05 s⁻¹ | self-cleavage kobs at 640 uM GlcN6P (glucosamine-6-phosphate [4]): 0.0001 ± 1.3e-05 s⁻¹ | self-cleavage kobs at 2500 uM GlcN6P (glucosamine-6-phosphate [5]): 0.000351 ± 7.7e-05 s⁻¹ | self-cleavage kobs at 10000 uM GlcN6P (glucosamine-6-phosphate [6]): 0.000427 ± 5.3e-05 s⁻¹

G43U U55C
kcat (glucosamine-6-phosphate [1]): 3.2e-05 ± 2.4e-06 s⁻¹ | self-cleavage kobs at 2500 uM GlcN6P (glucosamine-6-phosphate [5]): 3.2e-05 ± 1.2e-05 s⁻¹ | self-cleavage kobs at 10000 uM GlcN6P (glucosamine-6-phosphate [6]): 3.01e-05 ± 8.7e-06 s⁻¹

A42G C58G
kcat (glucosamine-6-phosphate [1]): 0.000303 ± 2.3e-05 s⁻¹ | KM (glucosamine-6-phosphate [7]): 6970 ± 950 µM | self-cleavage kobs at 2500 uM GlcN6P (glucosamine-6-phosphate [5]): 7.8e-05 ± 1.5e-05 s⁻¹ | self-cleavage kobs at 10000 uM GlcN6P (glucosamine-6-phosphate [6]): 0.00018 ± 2.6e-05 s⁻¹

C50A G51A
kcat (glucosamine-6-phosphate [1]): < 1e-05 s⁻¹ | self-cleavage kobs at 10000 uM GlcN6P (glucosamine-6-phosphate [6]): < 1e-05 s⁻¹

A14C G29A
kcat (glucosamine-6-phosphate [1]): 0.000725 ± 5.3e-05 s⁻¹ | KM (glucosamine-6-phosphate [7]): 2290 ± 270 µM | self-cleavage kobs at 160 uM GlcN6P (glucosamine-6-phosphate [3]): 4.05e-05 ± 1.5e-05 s⁻¹ | self-cleavage kobs at 640 uM GlcN6P (glucosamine-6-phosphate [4]): 0.000166 ± 2.4e-05 s⁻¹ | self-cleavage kobs at 2500 uM GlcN6P (glucosamine-6-phosphate [5]): 0.000389 ± 9.3e-05 s⁻¹ | self-cleavage kobs at 10000 uM GlcN6P (glucosamine-6-phosphate [6]): 0.00058 ± 9.2e-05 s⁻¹

U49A C71G
kcat (glucosamine-6-phosphate [1]): 2.68e-05 ± 1e-05 s⁻¹ | self-cleavage kobs at 640 uM GlcN6P (glucosamine-6-phosphate [4]): 3.32e-05 ± 1.2e-05 s⁻¹

G59U C71A
kcat (glucosamine-6-phosphate [1]): 1.28e-05 ± 7.6e-07 s⁻¹

C58G G63A
kcat (glucosamine-6-phosphate [1]): < 1e-05 s⁻¹ | self-cleavage kobs at 40 uM GlcN6P (glucosamine-6-phosphate [2]): < 1e-05 s⁻¹

G43U U54C
kcat (glucosamine-6-phosphate [1]): 6.24e-05 ± 1.8e-06 s⁻¹ | KM (glucosamine-6-phosphate [7]): 7100 ± 410 µM | self-cleavage kobs at 10000 uM GlcN6P (glucosamine-6-phosphate [6]): 3.65e-05 ± 1.6e-05 s⁻¹
